Laboratory results reported in patent publication US9081017.

Target: TNFR2 (human, endogenous in kidney tissue and cultured EC) (human) (UniProt P20333)
Assay: cell-based or functional assay

Sequence of TNFR2 (human, endogenous in kidney tissue and cultured EC) (human) (P20333 23-461): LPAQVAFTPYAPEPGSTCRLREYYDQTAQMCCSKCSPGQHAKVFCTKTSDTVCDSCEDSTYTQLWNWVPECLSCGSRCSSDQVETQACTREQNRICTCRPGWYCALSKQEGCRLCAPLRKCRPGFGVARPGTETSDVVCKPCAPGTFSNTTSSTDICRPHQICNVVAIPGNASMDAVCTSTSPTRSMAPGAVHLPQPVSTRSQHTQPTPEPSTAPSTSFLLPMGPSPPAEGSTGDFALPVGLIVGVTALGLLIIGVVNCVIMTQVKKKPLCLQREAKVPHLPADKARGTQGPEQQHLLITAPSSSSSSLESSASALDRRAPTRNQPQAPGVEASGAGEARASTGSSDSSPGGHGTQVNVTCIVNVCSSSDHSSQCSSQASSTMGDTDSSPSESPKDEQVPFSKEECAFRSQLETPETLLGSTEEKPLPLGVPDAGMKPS

- Proliferative index (PI), percentage of PCNA-positive tubular cell nuclei, human kidney organ culture: 50%
Substance: R2-TNF (TNF mutein D143N, A145R) (from UniProt P01375 77-233) (ligand)
